# From paper PMC8575881, “Structure and activation mechanism of the hexameric plasma membrane H^+-ATPase” (Nature Communications, 2021)
# How the values were obtained:
# [1] = biological target: the molecule itself; assay: SEC + native gel or EMSA; Superdex 200 10/300 in 20 mM HEPES pH 7.4, 150 mM NaCl; native gel electrophoresis
# [2] = biological target: the molecule itself; assay: SEC + native gel or EMSA; Superose 6 10/300 Increase in 20 mM HEPES pH 7.4, 150 mM NaCl, 0.003% LMNG, 0.0003% CHS, 1 mM MgCl2; native PAGE 4-20%, Tris-glycine pH 8.8
# [3] = biological target: the molecule itself; assay: SEC + native gel or EMSA; gel filtration of Pma1-ΔC22 by the protocol of wild-type Pma1; fractions 10-16 ml on native PAGE
protein,measurement,setting,value
"TRSVEDFMAAMQRVSTQHEKET (domain or fragment, S. cerevisiae, UniProt P05030 897-918, looked up, Pma1, S. cerevisiae, helix-i, the C-terminal 22 amino acids (T897-T918); A TEV protease cleavage site lies between the 6xHis-SUMO tag and the peptide; also called C-terminal helix-I peptide; C-tail helix-i; source: E. coli Rosetta (DE3), pET28a, purified (Ni-beads, Superdex 200 gel filtration); not shown: His6, N-terminal, kept; SUMO, N-terminal, kept) [SUMO-tagged helix-i (C-terminal 22 residues of Pma1) with an N-terminal 6xHis-SUMO tag and TEV site]",binding result,[1],binds
"S. cerevisiae plasma membrane H+-ATPase Pma1, full length, with a C-terminal triple FLAG epitope (enzyme, UniProt P05030 1-918, looked up, Plasma membrane H+-ATPase Pma1, S. cerevisiae, 918-residue protein, full length; Co-purified with endogenous lipids; residues 1-110 are disordered in the structures; The FLAG tag is not reported to be removed; also called Pma1-FL; wild-type Pma1; source: endogenous, tagged in the genome of yeast strain BY4742) MTDTSSSSSSSSASSVSAHQPTQEKPAKTYDDAASESSDDDDIDALIEELQSNHGVDDEDSDNDGPVAAGEARPVPEEYLQTDPSYGLTSDEVLKRRKKYGLNQMADEKESLVVKFVMFFVGPIQFVMEAAAILAAGLSDWVDFGVICGLLMLNAGVGFVQEFQAGSIVDELKKTLANTAVVIRDGQLVEIPANEVVPGDILQLEDGTVIPTDGRIVTEDCFLQIDQSAITGESLAVDKHYGDQTFSSSTVKRGEGFMVVTATGDNTFVGRAAALVNKAAGGQGHFTEVLNGIGIILLVLVIATLLLVWTACFYRTNGIVRILRYTLGITIIGVPVGLPAVVTTTMAVGAAYLAKKQAIVQKLSAIESLAGVEILCSDKTGTLTKNKLSLHEPYTVEGVSPDDLMLTACLAASRKKKGLDAIDKAFLKSLKQYPKAKDALTKYKVLEFHPFDPVSKKVTAVVESPEGERIVCVKGAPLFVLKTVEEDHPIPEDVHENYENKVAELASRGFRALGVARKRGEGHWEILGVMPCMDPPRDDTAQTVSEARHLGLRVKMLTGDAVGIAKETCRQLGLGTNIYNAERLGLGGGGDMPGSELADFVENADGFAEVFPQHKYRVVEILQNRGYLVAMTGDGVNDAPSLKKADTGIAVEGATDAARSAADIVFLAPGLSAIIDALKTSRQIFHRMYSYVVYRIALSLHLEIFLGLWIAILDNSLDIDLIVFIAIFADVATLAIAYDNAPYSPKPVKWNLPRLWGMSIILGIVLAIGSWITLTTMFLPKGGIIQNFGAMNGIMFLQISLTENWLIFITRAAGPFWSSIPSWQLAGAVFAVDIIATMFTLFGWWSENWTDIVTVVRVWIWSIGIFCVLGGFYYEMSTSEAFDRLMNGKPMKEKKSTRSVEDFMAAMQRVSTQHEKET",stoichiometry N,[2],6
"Pma1-ΔC22, helix-i truncated Pma1 with a C-terminal FLAG tag (domain or fragment, S. cerevisiae, UniProt P05030 1-896, looked up, Plasma membrane H+-ATPase Pma1, S. cerevisiae, lacking helix-i, the last 22 residues (T897-T918) of the 918-residue protein; also called Pma1-△C22; source: S. cerevisiae BY4742 transformed with the PRS423 vector; purified as wild-type Pma1 (anti-FLAG M2, gel filtration)) MTDTSSSSSSSSASSVSAHQPTQEKPAKTYDDAASESSDDDDIDALIEELQSNHGVDDEDSDNDGPVAAGEARPVPEEYLQTDPSYGLTSDEVLKRRKKYGLNQMADEKESLVVKFVMFFVGPIQFVMEAAAILAAGLSDWVDFGVICGLLMLNAGVGFVQEFQAGSIVDELKKTLANTAVVIRDGQLVEIPANEVVPGDILQLEDGTVIPTDGRIVTEDCFLQIDQSAITGESLAVDKHYGDQTFSSSTVKRGEGFMVVTATGDNTFVGRAAALVNKAAGGQGHFTEVLNGIGIILLVLVIATLLLVWTACFYRTNGIVRILRYTLGITIIGVPVGLPAVVTTTMAVGAAYLAKKQAIVQKLSAIESLAGVEILCSDKTGTLTKNKLSLHEPYTVEGVSPDDLMLTACLAASRKKKGLDAIDKAFLKSLKQYPKAKDALTKYKVLEFHPFDPVSKKVTAVVESPEGERIVCVKGAPLFVLKTVEEDHPIPEDVHENYENKVAELASRGFRALGVARKRGEGHWEILGVMPCMDPPRDDTAQTVSEARHLGLRVKMLTGDAVGIAKETCRQLGLGTNIYNAERLGLGGGGDMPGSELADFVENADGFAEVFPQHKYRVVEILQNRGYLVAMTGDGVNDAPSLKKADTGIAVEGATDAARSAADIVFLAPGLSAIIDALKTSRQIFHRMYSYVVYRIALSLHLEIFLGLWIAILDNSLDIDLIVFIAIFADVATLAIAYDNAPYSPKPVKWNLPRLWGMSIILGIVLAIGSWITLTTMFLPKGGIIQNFGAMNGIMFLQISLTENWLIFITRAAGPFWSSIPSWQLAGAVFAVDIIATMFTLFGWWSENWTDIVTVVRVWIWSIGIFCVLGGFYYEMSTSEAFDRLMNGKPMKEKKS",binding result,[3],binds
